{"source": "paper PMC2474558", "target": "hDOP–C352I Gαi2", "assay": "radioligand binding", "data": [{"substance": "DADLE (D-Ala^2, Leu^5-enkephalin) (peptide)", "values": [{"measurement": "pKi", "result": 9}]}]}
